According to patent US20190065668A1, “STRUCTURE OF […] IN COMPLEX WITH AN INHIBITOR AND USES THEREOF” (priority 2015, published 2019):

What was measured:
[1] = target: recombinant P. vivax plasmepsin V (residues R35-R476), N-terminal fusion tag removed with TEV protease (Plasmodium vivax) (UniProt A5K302); assay: cell-based or functional assay
[2] = target: recombinant P. vivax plasmepsin V (residues R35-R476), N-terminal fusion tag removed with TEV protease (Plasmodium vivax) (UniProt A5K302); assay: SPR, Biacore 4000, plasmepsin V amine-coupled on a CM5 chip
[3] = target: recombinant P. vivax plasmepsin V (residues R35-R476), N-terminal fusion tag removed with TEV protease (Plasmodium vivax) (UniProt A5K302); assay: SPR, Biacore 4000, plasmepsin V amine-coupled on a CM5 chip, 1:1 fit
[4] = target: recombinant P. vivax plasmepsin V (residues R35-R476), N-terminal fusion tag removed with TEV protease (Plasmodium vivax) (UniProt A5K302); assay: SPR, Biacore 4000, plasmepsin V amine-coupled on a CM5 chip, compound as analyte, 1:1 fit, 25 °C
[5] = target: recombinant P. falciparum plasmepsin V (residues N80-R528) (Plasmodium falciparum) (UniProt Q8I6Z5); assay: cell-based or functional assay
Sequence of recombinant P. falciparum plasmepsin V (residues N80-R528) (Plasmodium falciparum) (Q8I6Z5 80-528): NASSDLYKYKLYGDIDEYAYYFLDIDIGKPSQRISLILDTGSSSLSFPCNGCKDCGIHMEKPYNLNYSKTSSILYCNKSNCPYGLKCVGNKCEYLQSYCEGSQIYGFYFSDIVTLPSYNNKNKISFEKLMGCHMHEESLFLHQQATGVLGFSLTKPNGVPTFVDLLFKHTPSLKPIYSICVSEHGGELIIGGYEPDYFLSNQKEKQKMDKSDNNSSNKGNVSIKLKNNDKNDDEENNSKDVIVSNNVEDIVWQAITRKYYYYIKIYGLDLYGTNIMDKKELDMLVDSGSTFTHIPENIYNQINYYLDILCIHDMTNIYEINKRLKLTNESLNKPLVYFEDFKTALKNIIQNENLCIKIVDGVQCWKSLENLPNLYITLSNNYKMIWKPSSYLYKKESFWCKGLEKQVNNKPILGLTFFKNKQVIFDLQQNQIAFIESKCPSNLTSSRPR

Sequence of recombinant P. vivax plasmepsin V (residues R35-R476), N-terminal fusion tag removed with TEV protease (Plasmodium vivax) (A5K302 35-476, tags or fused parts left off): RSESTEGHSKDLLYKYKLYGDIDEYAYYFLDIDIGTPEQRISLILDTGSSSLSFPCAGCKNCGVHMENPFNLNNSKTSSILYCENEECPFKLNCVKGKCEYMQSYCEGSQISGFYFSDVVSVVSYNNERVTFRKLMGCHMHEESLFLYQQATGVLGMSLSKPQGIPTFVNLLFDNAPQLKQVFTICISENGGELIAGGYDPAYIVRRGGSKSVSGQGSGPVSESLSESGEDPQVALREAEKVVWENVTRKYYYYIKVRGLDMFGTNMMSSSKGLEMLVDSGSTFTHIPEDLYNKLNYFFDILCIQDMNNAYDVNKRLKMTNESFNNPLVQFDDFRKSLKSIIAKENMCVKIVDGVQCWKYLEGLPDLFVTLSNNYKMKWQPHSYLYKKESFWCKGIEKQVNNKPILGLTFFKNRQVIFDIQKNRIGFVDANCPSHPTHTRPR

Substance | IC50, inhibition of cleavage of the fluorogenic KAHRP PEXEL peptide [1] [µM] | fold affinity against WEHI-916 [2] [fold] | koff [3] [s⁻¹] | Kd [4] [µM] | IC50, inhibition of cleavage of the fluorogenic KAHRP PEXEL peptide [5] [µM]
WEHI-842, Cbz-Cav(NH2)-Val-Sta-NH(CH2)2Ph.TFA (peptide) | 0.0016 | > 2 | 0.00111 | 0.0134 | 
WEHI-916 (peptide) | 0.0082 |  | 0.00247 | 0.042 | 0.0129
